Assay results published in PMC9729883.

Legend:
[1] = biological target: unmodified forms (of BB7.2 IgG1 and IgG3, as a group for a mean dissociation rate); test: BLI; SAX2 tips loaded with biotinylated HLA-A2 (0.25 ug/mL), then recombinant HLA-A2 IgG (3 ug/mL, 600 s), dipped into 5 uM monomeric FcγRIIIa V158; 0.05% Tween-PBS; off-rate from a one phase exponential decay fit, reference tip subtracted
[2] = biological target: afucosylated IgG1 and IgG3 (HLA-A2 mAbs, as a group for a mean dissociation rate); test: as above

koff [1]: 0.46 s⁻¹
koff [2]: 0.021 s⁻¹
Substance: FcγRIIIa V158 (human, monomeric) (receptor)
